Among the data in a protein production outcome set (Wang et al. 2014) are protein production values, retold here.

A short description of the data set: label from the status in PepcDB records.

For “MPETYIITPNLNGVSFLEVYFRSLLRQTYEDFRVVFIDNGSSDGSVDFIKSNFSEYLGDRIILIENHENLGFAASNNQGIRIALDDPQCRYVVCLNNDTEVLPDFIENLILAAGDDERVGSVQARMIWGQNRKLIDSAGLEYSLNGLGFNRGAYEPVENFNERARILGCCAGACLYRREALEDVEVDAEYFDEDFFAYYEDFDLALRLRSAGWDSLYAPDATVYHYKGGTNPFISDFTVYHNWRNYTWTFIKNMPADLLLMCLPLFVLTEIIQVLLNIKRGKLIILRAKYDAYRGLGRVIRKRRALKRVPESEIKEYLTMRWSVKVPSPQED”, the protein production result is given as “failed”.
For “MPFINIKLVPENGGPTNEQKQQLIEGVSDLMVKVLNKNKASIVVIIDEVDSNNYGLGGESVHHLRQKN” the value was “failed”; for “MPFNTLAPQFSRLGPGLVLSIAATGLAFAIHTVFPAVPAMTLAVALGLLSANIPGTAVLTAGRARPGLDFAGKHLMRAGIVLLGLKVSIGDVIGLGWLSLLLIAGVVLLSFAGTYGLARLLRLPGEAALLIATGFSICGASAIGAMAAVRRIKHQDTVLPVALVTLCGTLAIGVLPLLMHPLNLNPEQFGAWTGASVHDVGQVVATAQTAGTSALAIAVVVKLTRVVLLAPVAAAAGVHQRILHVRERSNGKGDAAKSIDGRFPPIVPLFVVGFLSMVAVRSLGWVPPVGLEIAAAVQDILLATALFGLGSAVRVRTLIHTGGRAILVALGSWLLIASLGLGAAWIMIR”, “failed”; for “MPFRTIARLNPAKPKAGEEFRLQVVAQHPNEPGTRRDAEGKLIPAKYINLVEVYFEGEKVAEARPGPSTSANPLYAFKFKAEKAGTFTIKLKDTDGDTGEASVKLELV”, “not failed”.
For “MPFVLRCLLCCTLFVLGGCAAHEAPLAPVNPMGLSGNVAPEAEKNYALARVLWGNSEVCSDPVQAVAYLDRAIAVQPDYAAAYQRRGLAYSEMGRYEEAFEDLTKALRLKPGVEAYTYRGLVSMRMGNLIGARKDLDHALELDSGYHRAWNFRAAVRLQQDDTAGACADFAKGCSKGDCTGMESARESGICK” the value was “failed”; for “MPGSIPLIGERFPEMEVTTDHGVIKLPDHYVSQGKWFVLFSHPADFTPVCTTEFVSFARRYEDFQRLGVDLIGLSVDSVFSHIKWKEWIERHIGVRIPFPIIADPQGTVARRLGLLHAESATHTVRGVFIVDARGVIRTMLYYPMELGRLVDEILRIVKALKLGDSLKRAVPADWPNNEIIGEGLIVPPPTTEDQARARMESGQYRCLDWWFCWDTPASRDDVEEARRYLRRAAEKPAKLLYEEARTHLH”, “not failed”.
As to “MPGSPRGLCTRSRKSTMSTHGTIGVLGAGEVGQAVADKAVRHGHEVLIGNSRGPRTLEALVGRLGPKARAVTAEEAVQPELVFLSVPFFAVPELTGLTTWAGKIVVDTTNQFAAANPWRGRYDVGDLTGSEWVARHLPGARLVKALNTLFATFIAADPRHAEGRQVAFYAGDDADAKTAVAGLLDEFGFAALDLGGLRDGGRLMQLDGALSAKHLLLQDVG”, the protein production result is given as “failed”.
In the case of “MPGVLVTGGTGKTGKVLVQVLRNAGVQARVASRNPAAADPDPIRFDWNDPTTYGPALDGMDRVFLLPPVESVDPLPLVEPFLRRAQRAGVQRLVMLGSAIVLPNAPSAVEMAAQVQAQPGGVVLRASGFMQNFLRPHPLAEHIHRLGEIRTAAGDGRLGWVDARDIAASAAALLADLEVDARSDYLITGPHGMSYPQAAQIITAQTGRRVRVERITEEEQAAAHRASGMPPAFADALAAVERGIKEGREDQVSTAVLELTGRPPRTFAEFVSDHAYEWTQ” it was “failed”; in that of “MPGWHALTKPARFRYPEGLHGREIRVEFIDNIRYKKIKNAVGRAVADFGLIRDGDRIAVAVSGGKDSYTLLHILEGLRRRAPVKYELVAVTIDSGYPGFRSDVIASYLREQGFAHHLETTDHYDIIREKRRPGSSYCSICARLKRGVLYTLAQKLGCNKLALGHHLDDFVETLLLNQFFVGTLKAMAPRMLADNGETTVIRPLVYVEEREIIPFARENRFPVVCCSCPVCGTADLQRRRMKKLLTELEKENPAVKRSLLRALGNVQPRYLLDLELQRLCDVP”, “failed”.
For “MPHLRFRAVEAHIVESLVPTLLNELSSLLSTARNAFTFELINTQYFAEGGVYPMVEVLWFGREQQTQDQIAQVITDQIRQLLGADSHLAVVFIPLQRTAYYLDGQHF” the value was “not failed”.
For “MPHLVIEATANLRLETSPGELLEQANAALFASGQFGEADIKSRFVTLEAYRQGTAAVERAYLHACLSILDGRDAATRQALGESLCEVLAGAVAGGGEEGVQVSVEVREMERASYAKRVVARQR” the value was “not failed”.
